Test results: patent US20140120095A1 (Boehringer Ingelheim, published 2014)

What was measured:
[1] = target: T1, recombinant human DLL4 (C-terminally His-tagged extracellular domain, R&D Systems) (human, UniProt Q9NR61 25-522, biotinylated in the competition ELISA); assay: SPR (Biacore), rhDLL4
T1 construct: also called rhDLL4; hDLL4
Description: Kinetic analysis to determine the affinity of the DII4-VHH interaction is performed by Surface Plasmon Resonance (SPR) on a Biacore T100 instrument. […] Purified VHHs or Fab fragment are injected for 2 minutes at different concentrations (between 10 and 300 nM) and allowed to dissociate for 20 min at a flow rate of 45 μl/min. Between sample injections, the surfaces are regenerated with 10 mM glycine pH1.5 and 100 mM HCl. HBS-N (Hepes buffer pH7.4) is used as running buffer. If possible, data are evaluated by fitting a 1:1 interaction model (Langmuir binding) onto the binding curves. The affinity constant KD is calculated from resulting association and dissociation rate constants (kₐ) and […].

[2] = target: T2, recombinant mouse DLL4 (C-terminally His-tagged extracellular domain, R&D Systems) (mouse, UniProt Q9JI71 27-532); assay: SPR (Biacore), rmDLL4
T2 construct: extracellular domain; also called rmDLL4; mDLL4
T2 sequence (Q9JI71 27-532): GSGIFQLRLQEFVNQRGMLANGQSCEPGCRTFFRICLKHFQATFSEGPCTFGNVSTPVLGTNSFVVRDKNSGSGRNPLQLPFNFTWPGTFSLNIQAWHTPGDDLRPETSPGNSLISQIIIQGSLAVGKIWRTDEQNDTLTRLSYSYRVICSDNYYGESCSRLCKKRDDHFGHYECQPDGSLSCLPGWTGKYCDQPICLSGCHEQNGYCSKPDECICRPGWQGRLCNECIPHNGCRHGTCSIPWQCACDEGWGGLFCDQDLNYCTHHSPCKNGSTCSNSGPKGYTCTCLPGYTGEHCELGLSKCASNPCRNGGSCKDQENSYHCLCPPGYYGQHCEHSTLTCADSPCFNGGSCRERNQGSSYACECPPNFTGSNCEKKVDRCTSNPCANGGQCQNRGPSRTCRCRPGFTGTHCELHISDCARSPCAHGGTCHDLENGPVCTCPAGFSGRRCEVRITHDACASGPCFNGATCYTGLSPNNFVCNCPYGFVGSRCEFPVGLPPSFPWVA

[3] = target: T3, human DLL4 expressed on cells (CHO-hDLL4; HEK293-hDLL4) (human, UniProt Q9NR61 27-685); assay: cell-based or functional assay
[4] = target: T4, cynomolgus DLL4 expressed on CHO cells (cynomolgus, UniProt Q9NR61 27-685 (human entry)); assay: FACS on CHO-cDLL4 cells
T4 construct: also called cDLL4; CHO-cDLL4
T4 chain: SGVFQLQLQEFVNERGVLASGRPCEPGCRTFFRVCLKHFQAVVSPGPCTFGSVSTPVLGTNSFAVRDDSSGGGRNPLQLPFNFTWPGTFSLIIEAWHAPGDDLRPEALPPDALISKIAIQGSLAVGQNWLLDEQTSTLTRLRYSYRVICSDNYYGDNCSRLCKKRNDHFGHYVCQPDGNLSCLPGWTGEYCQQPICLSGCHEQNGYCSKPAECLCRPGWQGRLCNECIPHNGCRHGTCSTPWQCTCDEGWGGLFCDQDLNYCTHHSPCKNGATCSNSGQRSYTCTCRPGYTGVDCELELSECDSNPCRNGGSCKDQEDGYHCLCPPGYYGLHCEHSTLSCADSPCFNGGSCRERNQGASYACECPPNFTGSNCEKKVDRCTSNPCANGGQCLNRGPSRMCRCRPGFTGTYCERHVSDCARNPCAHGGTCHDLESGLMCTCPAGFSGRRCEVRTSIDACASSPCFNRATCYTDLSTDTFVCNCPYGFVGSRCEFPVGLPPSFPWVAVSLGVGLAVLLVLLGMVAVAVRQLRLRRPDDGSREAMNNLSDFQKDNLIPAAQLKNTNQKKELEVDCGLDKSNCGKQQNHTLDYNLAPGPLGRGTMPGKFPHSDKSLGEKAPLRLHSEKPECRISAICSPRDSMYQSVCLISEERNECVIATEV

[5] = target: T3, human DLL4 expressed on cells …; assay: FACS on CHO-hDLL4 cells
[6] = target: T1, recombinant human DLL4 (C-terminally …); assay: SPR (Biacore); summary table
[7] = target: T2, recombinant mouse DLL4 (C-terminally …); assay: SPR (Biacore); summary table
[8] = target: T3, human DLL4 expressed on cells …; assay: competition FMAT CHO-hDLL4; summary table
[9] = target: T5, mouse DLL4 expressed on CHO cells (mouse, UniProt Q9JI71 27-686); assay: competition FMAT CHO-mDLL4; summary table
T5 construct: whole, on cells; also called mDLL4; CHO-mDLL4
T5 sequence (Q9JI71 27-686): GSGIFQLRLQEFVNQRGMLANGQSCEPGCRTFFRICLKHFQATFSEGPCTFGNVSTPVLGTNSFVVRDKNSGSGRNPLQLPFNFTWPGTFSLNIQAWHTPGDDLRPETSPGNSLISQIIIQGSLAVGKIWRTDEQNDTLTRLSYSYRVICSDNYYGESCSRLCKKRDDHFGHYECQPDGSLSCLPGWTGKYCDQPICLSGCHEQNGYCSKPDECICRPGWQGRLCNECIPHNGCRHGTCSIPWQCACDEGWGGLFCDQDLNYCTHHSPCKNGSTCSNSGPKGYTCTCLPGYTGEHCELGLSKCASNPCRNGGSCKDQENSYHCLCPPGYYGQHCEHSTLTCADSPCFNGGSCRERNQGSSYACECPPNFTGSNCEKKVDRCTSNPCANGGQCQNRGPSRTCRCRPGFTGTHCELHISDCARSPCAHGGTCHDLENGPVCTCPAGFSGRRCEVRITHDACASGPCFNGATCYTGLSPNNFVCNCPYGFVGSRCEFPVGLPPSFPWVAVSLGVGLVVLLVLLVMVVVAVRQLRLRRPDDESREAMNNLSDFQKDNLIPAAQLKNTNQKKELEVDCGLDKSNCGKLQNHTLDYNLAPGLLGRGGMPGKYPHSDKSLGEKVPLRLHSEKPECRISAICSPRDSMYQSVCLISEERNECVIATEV

[10] = target: T4, cynomolgus DLL4 expressed on CHO cells; assay: FACS; summary table, column taken as cDLL4
[11] = target: T3, human DLL4 expressed on cells …; assay: FACS; summary table, column taken as hDLL4
[12] = target: T1, recombinant human DLL4 (C-terminally …); assay: competition ELISA hDLL4/hNotch1-Fc; summary table
[13] = target: T3, human DLL4 expressed on cells …; assay: competition FMAT, labelled hNotch1-Fc on CHO-hDLL4 cells
[14] = target: T5, mouse DLL4 expressed on CHO cells; assay: competition FMAT, labelled hNotch1-Fc on CHO-mDLL4 cells
[15] = target: T1, recombinant human DLL4 (C-terminally …); assay: competition ELISA, biotinylated hDLL4 to coated hNotch1-Fc
[16] = target: T6, human DLL1 (Alexis) (human, UniProt O00548 18-545, limits assumed); assay: binding ELISA on coated human DLL1 (Example 5.8, Example 7), OD 450 nm
T6 construct: also called hDLL1
T6 sequence (looked up): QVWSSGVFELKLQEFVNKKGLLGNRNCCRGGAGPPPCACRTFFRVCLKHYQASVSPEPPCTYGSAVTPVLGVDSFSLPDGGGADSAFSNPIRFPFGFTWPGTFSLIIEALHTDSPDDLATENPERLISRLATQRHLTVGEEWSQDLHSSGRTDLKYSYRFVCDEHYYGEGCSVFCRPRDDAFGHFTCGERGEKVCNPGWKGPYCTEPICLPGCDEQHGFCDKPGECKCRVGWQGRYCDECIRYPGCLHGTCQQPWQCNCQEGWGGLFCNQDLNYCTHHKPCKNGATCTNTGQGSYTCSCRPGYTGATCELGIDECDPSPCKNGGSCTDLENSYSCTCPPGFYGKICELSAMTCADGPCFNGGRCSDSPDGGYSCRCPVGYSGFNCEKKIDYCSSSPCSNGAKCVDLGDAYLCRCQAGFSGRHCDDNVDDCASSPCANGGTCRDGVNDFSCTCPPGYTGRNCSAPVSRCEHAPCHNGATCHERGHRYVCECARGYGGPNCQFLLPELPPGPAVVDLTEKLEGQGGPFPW

[17] = target: T7, human Jagged-1 (Alexis) (human, UniProt P78504 34-1067, limits assumed); assay: binding ELISA on coated human Jagged-1 (Example 5.8, Example 7), OD 405 nm
T7 construct: also called hJag-1; hJAG1

[18] = target: T1, recombinant human DLL4 (C-terminally …); assay: binding ELISA on coated recombinant human DLL4 (Example 5.8, Example 7), OD 450 nm
[19] = target: T2, recombinant mouse DLL4 (C-terminally …); assay: binding ELISA on coated recombinant mouse DLL4 (Example 5.8, Example 7), OD 450 nm
[20] = target: T8, PIGF (UniProt P49763-2 21-149, limits assumed); assay: solid phase binding ELISA on coated PIGF (Example 12.8)
T8 construct: also called placenta growth factor
T8 sequence (looked up): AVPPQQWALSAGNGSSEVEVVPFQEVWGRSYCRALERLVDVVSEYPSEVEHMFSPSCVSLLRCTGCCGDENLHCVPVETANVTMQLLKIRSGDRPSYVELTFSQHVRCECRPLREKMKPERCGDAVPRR
Description: (§1) Binding to VEGFB, VEGFC, VEGFD and PIGF is assessed via a solid phase binding ELISA. […] Wells are blocked with a casein solution (1% in PBS). […] As positive controls serial dilutions of the appropriate receptors are taken along and detected with horseradish peroxidase (HRP)-conjugated goat anti-human IgG, Fc specific antibody (Jackson Immuno Research Laboratories Inc., West Grove, Pa., USA) and a subsequent enzymatic reaction in the presence of the substrate TMB (3,3′,5,5′-tetramentylbenzidine) (Pierce, Rockford, Ill., USA).

[21] = target: T9, VEGFD (UniProt O43915 93-201, limits assumed); assay: solid phase binding ELISA on coated VEGF D (Example 12.8)
T9 sequence (looked up): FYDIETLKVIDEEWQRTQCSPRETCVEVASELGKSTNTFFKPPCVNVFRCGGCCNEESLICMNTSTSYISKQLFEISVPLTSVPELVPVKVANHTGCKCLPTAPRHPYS
Description: as §1

[22] = target: T10, VEGFB (UniProt P49765-2 22-188, limits assumed); assay: binding ELISA on coated VEGFB (Example 12.8), OD 450 nm
T10 sequence (looked up): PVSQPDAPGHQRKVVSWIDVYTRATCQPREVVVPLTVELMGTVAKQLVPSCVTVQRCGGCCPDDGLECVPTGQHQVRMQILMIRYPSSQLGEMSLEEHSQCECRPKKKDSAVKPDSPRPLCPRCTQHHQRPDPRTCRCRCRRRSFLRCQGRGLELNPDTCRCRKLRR
Description: as §1

[23] = target: T11, VEGFC (UniProt P49767 103-227, limits assumed); assay: binding ELISA on coated VEGFC (Example 12.8), OD 450 nm
T11 sequence (looked up): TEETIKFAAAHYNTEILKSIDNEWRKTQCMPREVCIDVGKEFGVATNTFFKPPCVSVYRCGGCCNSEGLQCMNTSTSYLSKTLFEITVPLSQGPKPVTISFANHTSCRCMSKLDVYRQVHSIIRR
Description: as §1

B1: DLLBII115A05 (VHH, not shown: small tags and cut ends)
VHH: EVQLVESGGGLVQPGGSLRLSCAASGFTFGSYDMSWVRRSPGKGPEWVSSINSGGGSTYYADFVKGRFTISRDNAKNTLYLQMNSLKPEDTAVYYCAADRYIRARQGDYWGAYEYDYWGQGTQVTVSS
notes: parent VHH; also called 115A05 (wt); 115A5
Q: Which results are given for B1?
A: Kd [1]: 0.016 µM; koff [1]: 0.004 s⁻¹; kon [1]: 250000 M⁻¹ s⁻¹; Kd [2]: 0.053 µM; koff [2]: 0.0091 s⁻¹; kon [2]: 170000 M⁻¹ s⁻¹; IC50, DLL4-mediated reporter assay [3]: 1.34 µM; EC50 [4]: 0.0138 µM; EC50 [5]: 0.0113 µM; Kd [6]: 0.016 µM; Kd [7]: 0.053 µM; IC50 [8]: 0.107 µM; IC50 [9]: 0.349 µM; EC50 [10]: 0.0138 µM; EC50 [11]: 0.0113 µM; IC50 [12]: 0.0075 µM; IC50 [13]: 0.107 µM; IC50 [14]: 0.349 µM; IC50 [15]: 0.0075 µM; binding result [16]: no binding (tested: log[M] -6.1 (about 8e-7 M)); binding result [17]: no binding (tested: log[M] -6.1 (about 8e-7 M)); EC50 (read off the curve) [18]: ~0.002 µM; EC50 (read off the curve) [19]: ~0.01 µM

B2: VEGFBII022 (VHH)
chain: EVQLVESGGGLVQTGDSLRLSCEVSGRTFSSYSMGWFRQAQGKEREFVVAISKGGYKYDSVSLEGRFTISKDNAKNTVYLQINSLKPEDTAVYYCASSRAYGSSRLRLADTYEYWGQGTQVTVSSGGGGSGGGSEVQLVESGGGLVQPGGSLRLSCVASGIRFMSMAWYRQAPGKHRELVARISSGGTTAYVDSVKGRFTISRDNSKNTVYLQMNSLKAEDTAVYYCNTFSSRPNPWGAGTQVTVSS
notes: bivalent (heterodimeric) VHH; also called VEGFBII23B04-9GS-5B05
Q: Does B2 bind [20]?
A: no binding (tested: about 5e-7 M)

Q: Does B2 bind [21]?
A: no binding (tested: about 5e-7 M)

Q: Does B2 bind [22]?
A: no binding (tested: 5e-7 M)

Q: Does B2 bind [23]?
A: no binding (tested: 5e-7 M)

B3: VEGFBII023 (VHH)
chain: EVQLVESGGGLVQTGDSLRLSCEVSGRTFSSYSMGWFRQAQGKEREFVVAISKGGYKYDSVSLEGRFTISKDNAKNTVYLQINSLKPEDTAVYYCASSRAYGSSRLRLADTYEYWGQGTQVTVSSGGGGSGGGGSGGGGSGGGGSGGGGSGGGGSGGGGSGGGGSEVQLVESGGGLVQAGGSLRLSCAASGRTFSNYAMGWFRQAPGKERVLVADISSSGINTYVADAVKGRFTISRDNAKNTVYLQMNSLKPEDTAVYYCAASAWWYSQMARDNYRYWGQGTQVTVSS
notes: bivalent (heterodimeric) VHH; also called VEGFBII23B04-40GS-10E07
Q: What does the source list for B3?
A: binding result [20]: no binding (tested: about 5e-7 M); binding result [21]: no binding (tested: about 5e-7 M); binding result [22]: no binding (tested: 5e-7 M); binding result [23]: no binding (tested: 5e-7 M)
